From article PMC2752310

Target: purified β protein (β clamp) (UniProt P0A988)
Test: SPR

Kd: 2440 nM
B1: His-6-tagged TnsE, purified (natural protein)
chain: MVRLATFNDNVQVVHIGHLFRNSGHKEWRIFVWFNPMQERKWTRFTHLPLLSRAKVVNSTTKQINKADRVIEFEASDLQRAKIIDFPNLSSFASVRNKDGAQSSFIYEAETPYSKTRYHIPQLELARSLFLINSYFCRSCLSSTALQQEFDVQYEVERDHLEIRILPSSSFPKGALEQSAVVQLLVWLFSDQDVMDSYESIFRHYQQNREIKNGVESWCFSFDPPPMQGWKLHVKGRSSNEDKDYLVEEIVGLEINAMLPSTTAISHASFQEKEAGDGSTQHIAVSTESVVDDEHLQLDDEETANIDTDTRVIEAEPTWISFSRPSRIEKSRRARKSSQTILEKEEATTSENSNLVSTDEPHLGGVLAAADVGGKQDATNYNSIFANRFAAFDELLSILKTKFACRVLFEETLVLPKVGRSRLHLCKDGSPRVIKAVGVQRNGSEFVLLEVDASDGVKMLSTKVLSGVDSETWRNDFEKIRRGVVKSSLNWPNSLFDQLYGQDGHRGVNHPKGLGELQVSREDMEGWAERVVREQFTH
